Experimental data published in patent US20240352080A1 (Seagen, published 2024).

Molecular target: T1, CD47 (UniProt Q08722 19-323, limits assumed)
T1 construct: whole, on cells; L540cy and SW780 are the cell lines named
Assay: saturation binding, flow cytometry on CD47-expressing L540cy cells

EC50: 21 nM
B1: hB6H12.3 (unmasked parent) (antibody, V domains shown)
VH: EVQLLESGGGLVQPGGSLRLSCAASGFTFSGYGMSWVRQAPGKRLEWVATITSGGTYTYYPDSVKGRFTISRDNSKNTLYLQMNSLRAEDTAIYFCARSLAGNAMDYWGQGTLVTVSS
VL: EIVMTQSPDFQSVTPKEKVTLTCRASQTISDYLHWYQQKPDQSPKLLIKFASQSISGVPSRFSGSGSGSDFTLTINSLEAEDAATYYCQNGHGFPRTFGQGTKLEIKR
